Numbering of substitutions follows the chain as printed.
Tests used:
Details in all cases: protein: recombinant; tags: none stated (pET3a, untagged); label: 5'-32P; single strand
[1] = biological target: T1, DinG D10A E12A (Bacillus subtilis, UniProt P54394 1-931, D10A;E12A); experiment: EMSA; 2 mM EDTA, no metal; text names lssDNA38, Methods and Fig S4 legend give lssDNA45; EMSA, buffer D (composition not in material; 3 mM MgCl2, or 2 mM EDTA instead), 0.5 nM DNA, 37 °C, 10 min (text: 5 min), 15% native PAGE in TBE 1X; pH and salt
T1 sequence: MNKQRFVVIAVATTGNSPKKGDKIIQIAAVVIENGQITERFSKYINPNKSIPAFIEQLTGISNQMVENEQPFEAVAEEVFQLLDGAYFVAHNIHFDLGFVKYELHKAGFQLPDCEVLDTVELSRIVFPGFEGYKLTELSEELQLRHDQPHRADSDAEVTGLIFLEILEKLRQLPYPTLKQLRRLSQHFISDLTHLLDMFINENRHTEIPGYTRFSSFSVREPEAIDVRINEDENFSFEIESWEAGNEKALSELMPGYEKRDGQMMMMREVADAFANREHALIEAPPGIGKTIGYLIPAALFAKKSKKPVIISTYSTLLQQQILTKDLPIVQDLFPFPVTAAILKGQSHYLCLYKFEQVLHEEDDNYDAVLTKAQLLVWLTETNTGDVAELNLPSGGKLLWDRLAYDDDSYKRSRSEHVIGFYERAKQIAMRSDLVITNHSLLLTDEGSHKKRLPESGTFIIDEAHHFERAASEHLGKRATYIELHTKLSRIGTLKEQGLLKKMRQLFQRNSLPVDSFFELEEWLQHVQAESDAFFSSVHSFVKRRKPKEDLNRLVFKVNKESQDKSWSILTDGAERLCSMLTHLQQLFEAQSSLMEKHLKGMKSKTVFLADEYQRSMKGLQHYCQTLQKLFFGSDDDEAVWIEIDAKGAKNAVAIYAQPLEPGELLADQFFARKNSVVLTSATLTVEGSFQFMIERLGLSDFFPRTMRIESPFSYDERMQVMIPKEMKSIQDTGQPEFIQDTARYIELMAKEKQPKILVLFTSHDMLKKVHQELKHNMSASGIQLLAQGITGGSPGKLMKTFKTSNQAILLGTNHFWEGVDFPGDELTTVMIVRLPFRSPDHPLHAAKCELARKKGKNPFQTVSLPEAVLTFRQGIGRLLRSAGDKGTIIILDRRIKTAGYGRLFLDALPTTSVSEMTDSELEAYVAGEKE

[2] = biological target: T1, DinG D10A E12A; experiment: EMSA; 3 mM Mg2+; C1, C2 and well complexes; EMSA, buffer D (composition not in material; 3 mM MgCl2, or 2 mM EDTA instead), 0.5 nM DNA, 37 °C, 10 min (text: 5 min), 15% native PAGE in TBE 1X; pH and salt
[3] = biological target: T2, DinG K290A (Bacillus subtilis, UniProt P54394 1-931, K290A); experiment: EMSA; 2 mM EDTA, no metal; Kapp; text names lssDNA38, Methods and Fig S4 legend give lssDNA45; EMSA, buffer D (composition not in material; 3 mM MgCl2, or 2 mM EDTA instead), 0.5 nM DNA, 37 °C, 10 min (text: 5 min), 15% native PAGE in TBE 1X; pH and salt
T2 sequence: T1 sequence with A10D, A12E, K290A

GTACGTATTCAAGATACCTCGTACTCTGTACTGACTCGGATCCTA (ssDNA, biotin-T at position 44 (second from 3' end)) [3'-Biotin gamma32P-lssDNA45] was tested, and the binding signal [1] was ~2 fold lower affinity than its Mg2+-bound state, the binding signal [2] was ~37 fold lower affinity than wt DinG and the “apparent K (half saturation)” value [3] was about 1.1 nM.
